Source: paper PMC7319586

T1: Rv1044 (Mycobacterium tuberculosis (H37Rv), UniProt P96357 1-207)
T1 sequence: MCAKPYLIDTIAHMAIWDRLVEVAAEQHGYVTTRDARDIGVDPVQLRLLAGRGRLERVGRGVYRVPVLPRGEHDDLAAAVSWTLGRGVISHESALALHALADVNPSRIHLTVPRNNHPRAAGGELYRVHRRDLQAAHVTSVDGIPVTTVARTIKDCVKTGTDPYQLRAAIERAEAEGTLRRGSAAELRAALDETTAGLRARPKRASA

T2: Rv2827c (Mycobacterium tuberculosis (H37Rv), UniProt P71625 1-295)
T2 sequence: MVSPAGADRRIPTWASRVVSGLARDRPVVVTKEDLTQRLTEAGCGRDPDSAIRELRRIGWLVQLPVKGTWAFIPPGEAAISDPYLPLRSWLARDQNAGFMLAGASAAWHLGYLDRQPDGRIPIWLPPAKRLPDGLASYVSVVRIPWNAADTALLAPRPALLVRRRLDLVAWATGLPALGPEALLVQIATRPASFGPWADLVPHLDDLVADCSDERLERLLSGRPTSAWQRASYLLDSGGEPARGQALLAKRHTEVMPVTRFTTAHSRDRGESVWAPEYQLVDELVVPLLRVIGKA

B1: Prv1044 -1 to -71 WT (TRB1086) (dsDNA)
DNA 1: AACTAGGCGCGCCTAGCCTGGACGAGTCCCCGGGCCGACATTCGCCCGAGGCCTTGGCCTCCATCACCTAAAAGCTTTTGTCAGTGCGCA
DNA 2: TGCGCACTGACAAAAGCTTTTAGGTGATGGAGGCCAAGGCCTCGGGCGAATGTCGGCCCGGGGACTCGTCCAGGCTAGGCGCGCCTAGTT
B2: Prv1044 -61 to -131 WT (TRB1102) (dsDNA)
DNA 1: GTATCTGCGACAAGGGCAGCGTCGATGCCTCGACATGCAGAGTCGGTGTTCGCTTCACGCGAACTAGGCGCAAGCTTTTGTCAGTGCGCA
DNA 2: TGCGCACTGACAAAAGCTTGCGCCTAGTTCGCGTGAAGCGAACACCGACTCTGCATGTCGAGGCATCGACGCTGCCCTTGTCGCAGATAC
B3: Prv2827c -1 to -71 WT (IR3-IR4, TRB1104) (dsDNA)
DNA 1: CAAGTGATTTCTTGAGTTTGAACATTGTTGCGTACAGATATAGTATAGTTTCCGGTGTGAATTCAAGTTCGAAGCTTTTGTCAGTGCGCA
DNA 2: TGCGCACTGACAAAAGCTTCGAACTTGAATTCACACCGGAAACTATACTATATCTGTACGCAACAATGTTCAAACTCAAGAAATCACTTG
B4: Prv2827c -61 to -131 WT (IR1-IR2, TRB1106) (dsDNA)
DNA 1: CAGGGCACTTGAGTTTGGAACGGGTTTCGTACTGTCACTGACCGAAGCCCGTTCCTAAATCAAGTGATTTCAAGCTTTTGTCAGTGCGCA
DNA 2: TGCGCACTGACAAAAGCTTGAAATCACTTGATTTAGGAACGGGCTTCGGTCAGTGACAGTACGAAACCCGTTCCAAACTCAAGTGCCCTG
B5: PabiEi -1 to -71 WT (IR1-IR2, TRB1061) (dsDNA)
DNA 1: AAAAGAAAATGTTGCTTTTATACCACAAATATTGTAAAATTGTAGTGTAAAAGCAACAAGTGGGGGGCCGTAAGCTTTTGTCAGTGCGCA
DNA 2: TGCGCACTGACAAAAGCTTACGGCCCCCCACTTGTTGCTTTTACACTACAATTTTACAATATTTGTGGTATAAAAGCAACATTTTCTTTT

How the values were obtained:
Rv1044 = target: T1, Rv1044; test: EMSA; details: protein: recombinant; tags: His6-SUMO removed by SENP; untagged; chain copies: 2; label: 5' 6-FAM on strand 2; blunt
Rv2827c [1] = target: T2, Rv2827c; test: EMSA; two binding events; not co-operative; details: protein: recombinant; tags: His6-SUMO removed by SENP; untagged; label: 5' 6-FAM on strand 2; blunt
Rv2827c [2] = target: T2, Rv2827c; test: EMSA; weakly negative co-operativity; details: protein: recombinant; tags: His6-SUMO removed by SENP; untagged; label: 5' 6-FAM on strand 2; blunt
Rv2827c [3] = target: T2, Rv2827c; test: EMSA; details: protein: recombinant; tags: His6-SUMO removed by SENP; untagged; label: 5' 6-FAM on strand 2; blunt

Binder	binding result (Rv1044)	binding result (Rv2827c [1])	binding result (Rv2827c [2])	binding result (Rv2827c [3])
B1	no binding			
B2	no binding			
B3	no binding	binds		
B4	no binding		binds	
B5				no binding
